# Square brackets hold non-standard residues; d marks the D form. Ends that are not written are not given here. Peptide text beside a SMILES is read from it. * marks the point of attachment. Benzoyl(4-octyl) = CCCCCCCCc1ccc(C(=O)*)cc1; pT = C[C@@H](OP(=O)(O)O)[C@H](N)C(=O)O; X1 = CCCCCCCCCc1ccc(C(=O)*)cc1
# T1: PLK3 PBD (Homo sapiens, UniProt Q9H4B4)
# T1 construct: A similar assay format was developed for the PLK3 PBD
# T1 sequence (Q9H4B4 335-646 limits assumed): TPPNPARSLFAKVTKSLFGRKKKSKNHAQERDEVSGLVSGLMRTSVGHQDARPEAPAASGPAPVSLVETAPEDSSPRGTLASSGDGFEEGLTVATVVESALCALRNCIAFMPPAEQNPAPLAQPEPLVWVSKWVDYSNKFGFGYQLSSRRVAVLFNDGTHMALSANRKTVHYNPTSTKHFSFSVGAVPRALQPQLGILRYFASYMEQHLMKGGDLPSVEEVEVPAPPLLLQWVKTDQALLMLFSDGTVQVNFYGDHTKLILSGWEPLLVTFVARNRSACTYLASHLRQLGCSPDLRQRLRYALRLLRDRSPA
# T2: polo-box domain (PBD) of polo-like kinase 3 (PLK3) (UniProt Q9H4B4 335-646, limits assumed)
# T2 construct: domain: polo-box domain (PBD); also called PLK3 PBD; PBD of PLK3
# T2 sequence (looked up): T1 sequence (Q9H4B4 335-646 limits assumed)
# B1: Compound No. 18, 4-nonyl S[pT]AI (SEQ ID NO: 13), R1 group on the C-terminal (peptide)
# peptide: S[pT]AI
# modifications: also: 4-nonyl R1 group on C-terminus, 'C-terminal amidated nonyl', terminal chemistry unclear
# B2: Compound No. 17, 4-octyl S[pT]AI (SEQ ID NO: 13), R1 group on the C-terminal (peptide)
# peptide: S[pT]AI
# modifications: also: 4-octyl R1 group on C-terminus, 'C-terminal amidated octyl', terminal chemistry unclear
# B3: PLK3 binding tracer (fluorescein-labelled SEQ ID NO: 7) (peptide)
# peptide: GPLATS[pT]PKNG
# modifications: also: fluorescein-labelled, site not given here
# notes: also called PLK3 tracer; fluorescein-labelled tracer for the PLK3 PBD
# Columns and labels:
# HeLa cells = assay: MTT cell viability assay, HeLa; assay type: cell-based; settings: no delivery agent
# Description: (§1) Accordingly, cell viability was measured using an MTT assay to determine the anti-proliferative activity for Compounds No. 15, 16, 17, and 18 with regard to three different cell types (HeLa, PC-3, and A549). The cells utilized were chosen due to reported synthetic lethal interactions with PLK1 inhibition
# A549 cells = assay: MTT cell viability assay, A549; assay type: cell-based; settings: A549, Kras mutant lung cancer, no delivery agent
# Description: as §1
# [1] = tested on: RPE cells expressing PLK1 C67V mutant; assay type: cell-based; settings: for sensitivity of RPE cells to FLIPs, in words: FIG. 8
# PC-3 cells = assay: MTT cell viability assay, PC-3; assay type: cell-based; settings: PC-3, PTEN deficient prostate cancer, no delivery agent
# Description: as §1
# PLK1 PBD = PLK1 PBD (Homo sapiens, UniProt P53350); assay: Fluorescence polarization competitive binding assay, PLK1 PBD
# Description: (§2) According to the assay, binding of a fluorescent tracer peptide to a protein increased polarization of the emitted fluorescence. […] The ability of test molecules to bind to the PBD was quantitated by a reduction in mP values that occurred as the tracer was displaced from the PBD, and plotted to calculate as an IC50 value.
# (§3) The affinities of the peptides for PLK1 and PLK3 were measured by plotting the loss of polarization against increasing concentration of competitor peptide through use of an optimized assay and selectivity determination.
# [2] = tested on: RPE cells expressing wild-type PLK1; assay type: cell-based; settings: read-out: growth inhibition, RPE cells expressing wild-type PLK1
# PC3 cells = assay: Cell cycle analysis of serum-starved PC3 cells; assay type: cell-based; settings: 200 μM, 24 hours, PC3 synchronized by serum starvation; mock 19.9%
# Description: To examine the cellular phenotype of PLK1 inhibition through the Polo-box domain, PC3 cells synchronized in G1 through serum starvation were treated with Compound No. 16. Cells were synchronized by serum starvation for 24 hours prior to treatment. Untreated cells were serum starved and then released into drug-free media for 24 hours (left panel) as control. Sample cells were serum starved and then treated with 200 μM Compound No. 16 for 24 hours (right panel).
# PLK3 PBD = target: T1, PLK3 PBD; assay: Fluorescence polarization competitive binding assay, PLK3 PBD
# Description: (§4) The binding of fluorescein-labelled tracer peptides used for both assays was determined to see if there was a difference in affinity for their respective PBD. A titration curve for each tracer/PLK PBD complex was generated to determine Kd values for each and therefore compare the relative binding affinities.
# as §3
# [3] = tested on: BubR1 phosphorylation in PC-3 cells; assay: Immunoblotting for BubR1 phosphorylation and pHH3 in PC-3 cells; assay type: cell-based; settings: 5-30 μM, 23 hours
# Description: To measure the PLK1 inhibitory activity of the FLIPs in cells, phosphorylation of the mitotic protein BubR1 was measured. PC-3 cells were serum starved for 72 h and released from the G1-S boundary. 16 h after released, cells were arrested at prometaphase by treatment with 100 ng/ml Colcemid or treated with 50 nM BI2536 PLK1 kinase inhibitor or 5-30 μM of Compound No. 18 for 23 hours. Cells were trypsinized and whole cell lysate was prepared. The obtained total cell lysate was subjected to immunoblotting with anti-BubR1 (top panel, FIG. 9), anti-β tubulin (middle panel, FIG. 9), and anti-pHH3 (bottom panel, FIG. 9).
# [4] = target: polo-box domain (PBD) of polo-like kinase 1 (PLK1) (UniProt P53350); assay: from FP IC50s, (IC50 PLK3 PBD/IC50 PLK1 PBD)x5; PLK1 PBD against PLK3 PBD
# [5] = target: polo-box domain (PBD) of polo-like kinase 3 (PLK3) (UniProt Q9H4B4); assay: fluorescence polarization competition on PLK3 PBD
# [6] = target: polo-box domain (PBD) of polo-like kinase 1 (PLK1) (UniProt P53350); assay: fluorescence polarization competition on PLK1 PBD
# [7] = target: polo-like kinase 1 (PLK1), wild type, in cells (UniProt P53350 2-603, limits assumed); assay: cell-based or functional assay
# [8] = target: polo-box domain (PBD) of polo-like kinase 3 (PLK3) (UniProt Q9H4B4); assay: fluorescence polarization competition, displacement of tracer peptide from PLK3 PBD
# [9] = target: polo-box domain (PBD) of polo-like kinase 1 (PLK1) (UniProt P53350); assay: from FP IC50s; PLK1 PBD against PLK3 PBD
# [10] = target: polo-box domain (PBD) of polo-like kinase 1 (PLK1) (UniProt P53350); assay: fluorescence polarization competition, displacement of tracer peptide from PLK1 PBD
# [11] = target: T3, polo-box domain (PBD) of polo-like kinase 1 (PLK1) (UniProt P53350 367-603, limits assumed); assay: as above
# T3 construct: domain: polo-box domain (PBD); the background speaks of the four known human PLKs and the residue numbers (L491) fit human PLK1; also called PLK1 PBD; PBD of PLK1
# Excerpt: as §2, with “IC₅₀” for “IC50”
# [12] = target: T3, polo-box domain (PBD) of polo-like …; assay: fluorescence polarization competition on PLK1 PBD
# [13] = target: T2, polo-box domain (PBD) of polo-like …; assay: fluorescence polarization competition, displacement of tracer peptide from PLK3 PBD
# Description: as §2, with “IC₅₀” for “IC50”
# as §4, §3
# [14] = target: T2, polo-box domain (PBD) of polo-like …; assay: fluorescence polarization titration of tracer with PLK3 PBD
# Description: as §2, with “IC₅₀” for “IC50”
# as §4
# Chain of polo-like kinase 1 (PLK1), wild type, in cells (P53350 2-603 limits assumed): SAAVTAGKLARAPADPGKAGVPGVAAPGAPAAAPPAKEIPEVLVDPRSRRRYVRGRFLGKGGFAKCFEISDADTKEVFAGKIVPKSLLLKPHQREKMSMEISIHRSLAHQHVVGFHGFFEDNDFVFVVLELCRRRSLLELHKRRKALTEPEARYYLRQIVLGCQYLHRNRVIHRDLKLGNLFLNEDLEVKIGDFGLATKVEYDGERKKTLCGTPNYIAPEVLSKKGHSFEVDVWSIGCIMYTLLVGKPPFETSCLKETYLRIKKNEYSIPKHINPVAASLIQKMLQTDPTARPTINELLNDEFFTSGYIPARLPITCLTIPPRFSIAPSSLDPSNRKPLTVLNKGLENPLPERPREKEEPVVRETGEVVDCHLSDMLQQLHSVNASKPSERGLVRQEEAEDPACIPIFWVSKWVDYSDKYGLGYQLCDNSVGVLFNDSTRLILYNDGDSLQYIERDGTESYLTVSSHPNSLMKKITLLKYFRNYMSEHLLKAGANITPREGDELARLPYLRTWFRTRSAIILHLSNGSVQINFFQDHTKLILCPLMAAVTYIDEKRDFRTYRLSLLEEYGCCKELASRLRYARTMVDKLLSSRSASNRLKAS
# Chain of polo-box domain (PBD) of polo-like kinase 1 (PLK1) (UniProt P53350) (P53350 367-603 limits assumed): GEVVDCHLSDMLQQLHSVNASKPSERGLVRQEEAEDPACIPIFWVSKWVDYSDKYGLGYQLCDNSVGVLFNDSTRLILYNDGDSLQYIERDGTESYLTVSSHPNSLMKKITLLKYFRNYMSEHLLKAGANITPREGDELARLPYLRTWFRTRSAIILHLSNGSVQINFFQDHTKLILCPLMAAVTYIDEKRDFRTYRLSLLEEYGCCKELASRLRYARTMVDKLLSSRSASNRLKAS
# T3 sequence (P53350 367-603 limits assumed): as above
# Chain of PLK1 PBD (P53350 367-603 limits assumed): as above
molecule,measurement,setting,value
CCCCCCCCc1ccc(C(=O)N[C@@H](CO)C(=O)N[C@H](C(=O)N[C@@H](C)C(=O)N[C@H](C(=O)O)[C@@H](C)CC)[C@@H](C)OP(=O)(O)O)cc1 [Compound 15] ({Benzoyl(4-octyl)}-S[pT]AI-OH; C-terminus assumed),IC50,HeLa cells,128 µM
same,IC50,A549 cells,79.5 µM
same,"sensitivity of RPE cells to FLIPs, in words",[1],sensitive
same,IC50,PC-3 cells,55.7 µM
CCCCCCCCc1ccc(C(=O)N[C@@H](CO)C(=O)N[C@H](C(=O)N2CCC[C@H]2C(=O)N[C@@H](CC(C)C)C(=O)O)[C@@H](C)OP(=O)(O)O)cc1 [Compound 16] ({Benzoyl(4-octyl)}-S[pT]PL-OH; C-terminus assumed),fold reduction of PLK1 PBD binding relative to parent compound,PLK1 PBD,3-4 fold
same,IC50,[2],158 µM
same,accumulation in G2/M,PC3 cells,53%
same,IC50,"[1]; C67V mutant PLK1, read-out: growth inhibition, RPE cells expressing PLK1 C67V mutant",86.8 µM
same,"sensitivity of RPE cells to FLIPs, in words",[1],sensitive
same,fold reduction of PLK3 PBD binding relative to parent compound,PLK3 PBD,3-4 fold
same,IC50,"PLK3 PBD; competition with fluorescent tracer peptide, read-out: PLK3 PBD FP IC50",620 ± 72.5 µM
CCCCCCCCCc1ccc(C(=O)N[C@@H](CO)C(=O)N[C@H](C(=O)N[C@@H](C)C(=O)N[C@H](C(N)=O)[C@@H](C)CC)[C@@H](C)OP(=O)(O)O)cc1 [Compound 18] (X1-S[pT]AI-NH2; N-terminus assumed),BubR1 phosphorylation (anti-BubR1 immunoblot),[3],inhibited the BubR1 phosphorylation
same,mitotic block (anti-pHH3 immunoblot),[3],blocked the cells at mitosis
GPLATS[pT]PNGL (SEQ ID NO: 8),Selectivity Index,[4],2860
same,fold reduction of affinity against the PLK3 consensus peptide (SEQ ID NO: 7),[5],3 fold
same,fold reduction of affinity against the PLK3 consensus peptide (SEQ ID NO: 7),[6],2 fold
B1,MTT IC50 [µM] HeLa,[7],38.2 µM
same,MTT IC50 [µM] PC-3,[7],27 µM
same,IC50,[8],95.9 µM
same,Selectivity Index,[9],78
same,IC50,[10],1.23 µM
"{4‑(propylamino)benzoyl}-S[pT]PNGL (also: further groups not given here, see m14; also called Compound No. 9) [Compound #9, propylamino FLIP (R1 = NCH2CH2CH3)]",IC50,[11],5.4 µM
same,fold increase of activity against Compound #8,[12],> 2 fold
LLCS[pT]PNGL (also called native Cdc25C peptide) [Cdc25C PBD substrate peptide LLCS[pT]PNGL (SEQ ID NO: 1)],Selectivity Index,[4],> 17000
same,IC50,[10],0.17 µM
same,IC50,[13],> 600 µM
"{Benzoyl(4-octyl)}-S[pT]PL [Compound No. 16, 4-octyl S[pT]PL (SEQ ID NO: 14)]",MTT IC50 [µM] A549,[7],160 µM
same,MTT IC50 [µM] HeLa,[7],142 µM
same,MTT IC50 [µM] PC-3,[7],103 µM
same,fold weaker affinity against Compound No. 15,[5],3 to 4 fold
same,Selectivity Index,[9],2580
same,fold weaker affinity against Compound No. 15,[6],3 to 4 fold
same,IC50,[10],1.2 µM
B2,MTT IC50 [µM] HeLa,[7],38.9 µM
same,MTT IC50 [µM] PC-3,[7],41.5 µM
same,IC50,[8],117 µM
same,Selectivity Index,[9],79
same,IC50,[10],1.49 µM
B3,Kd,[14],0.0272 µM
